Reference: patent US7888090B2, “Mutants of O6-alkylguanine-DNA alkyltransferase” (Ecole Polytechnique Federale de Lausanne, priority 2004, dated 2011)

Tests used:
[1] = tested on: oligonucleotide SEQ ID NO:2 (modified in position 14); test: Reactivity against DNA-based substrates (BG-Cy3 assay with BG-modified oligonucleotide); assay type: biochemical; details: 0.5 µM (or more) BG-modified oligonucleotide
Experimental: The ability of wild type AGT or mutant AGT to react with alkylated DNA substrates is measured as the reaction of its inactivation by a synthetic oligonucleotide containing O^6-benzylguanine (SEQ ID NO:2, modified in position 14). Subsequently, the reactions are quenched by incubation with biotinylated O^6-alkylguanine. Samples are subjected to Western blotting and detection with streptavidin derivates to obtain kinetic constants for these substrates. Alternatively, the ability of wild type or mutant AGT to react with alkylated DNA substrates is measured via its labeling efficiency in competition with a fluorescent substrate of AGT. The reaction kinetics of AGT with BG-Cy3 (O^6-benzylguanine coupled to Cy3) is followed by fluorescence intensity measurements at various concentrations of a competing synthetic oligonucleotide containing O^6-benzylguanine (SEQ ID NO:2, modified in position 14).
Reactivity against DNA-based substrates measured with a BG-Cy3 assay: BG-Cy3 is prepared by reacting the previously described O^6-(4-aminomethyl-benzyl)guanine (Keppler et al., NatureBiotechnol. 21:86-89, 2003) with the commercially available N-hydroxysuccinimide ester of Cy3, (Cy3-NHS, Amersham). The coupling reaction is performed at ambient temperature in N,N-dimethylformamide in the presence of 1 eq. of triethylamine. The BG-Cy3 conjugate is purified by reversed-phase HPLC on a C18-column by using linear gradients from 0.1% trifluoroacetic acid to acetonitrile. After solvent evaporation BG-Cy3 is dissolved in dimethyl sulfoxide and stored at −20° C. For measuring the reactivity with DNA-based substrates, a reaction mixture containing different concentrations (0 to 5 µM) of oligonucleotide SEQ ID NO:2 (modified in position 14), GST-AGT fusion protein at 0.2 µM and BG-Cy3 at […] in reaction buffer (50 mM HEPES, pH 7.2, 1 mM DTT, 200 mg/ml BSA) is incubated in microtiterplates. Fluorescence of the Cy3 derivative (excitation 519 nm, emission at 572 nm) is measured on a Spectramax Gemini plate reader (Molecular Devices).

[2] = compared to wild type hAGT; literature; cited from earlier work
[3] = Reactivity towards N^9-modified O^6-benzylguanine derivatives (preblocking, BG-Cy3 assay); assay type: biochemical; details: 100 µM N^9-isobutyl-, N^9-propyl-, N^9-cyanomethyl-O^6-benzylguanine, 15 min
Experimental: FIG. 3: Reactivity of AGT mutants with N^9-modified BG derivatives. 10 µM AGTM (grey bars) or PGEG-hAGT (black bars) were preblocked with 100 µM N^9-modified BG derivatives (see list below), and subsequently labeled with 20 µM BG-Cy3. After 1 h reaction time, fluorescence intensity (FI) indicated in arbitrary units [a.u.] at 595 nm is measured. The black bold line is set at the reading for condition 1 corresponding to background fluorescence of the fluorophore not attached to protein. Values above this line indicate slow or incomplete reaction with N^9-modified BG-derivative. • 1 Fluorescence of BG-Cy3 without protein; background fluorescence. • 2 Reaction with BG-Cy3; no preblocking, positive control. • 3 Reaction with BG-Cy3, preblocked with 100 µM BG. • 4 Reaction with BG-Cy3, preblocked with 100 µM N^9-isobutyl-O^6-benzylguanine. • 5 Reaction with BG-Cy3, preblocked with 100 µM N^9-propyl-O^6-benzylguanine. • 6 Reaction with BG-Cy3, preblocked with 100 µM N^9-cyanomethyl-O^6-benzylguanine.
Reactivity of AGT towards N^9-modified O^6-benzylguanine derivatives: The experiment is based on the BG-Cy3 assay. Upon reaction of AGT with BG-Cy3, an increase of fluorescence emission intensity of Cy3 by a factor 2-3 can be observed. […]

salmon sperm DNA = test: DNA binding as inhibition by DNA of the reaction with BG-Cy3; details: salmon sperm DNA 25 µg/ml
Experimental: (§1) The interaction with DNA is e.g. quantified by assessing the amount of copurified DNA from E. coli extracts under conditions of low salt and absence of DNase. This is compared between parallel purifications of fusion proteins (e.g. fusions to GST) of wild type (human) and mutant AGT by spectroscopic methods (ratio of absorbance at 260 and 280 nm). Alternatively the interaction of AGT with DNA is measured as the inhibition of AGT reactivity with BG-Cy3 (O^6-(4-aminomethyl-benzyl)-guanine coupled to Cy3) as substrate in the presence of DNA. This approach takes advantage of a marked increase of fluorescence of the Cy3 fluorophore upon reaction of BG-Cy3 with AGT. The reaction kinetics of AGT with a Cy3-labeled benzylguanine derivative is followed by fluorescence intensity measurements over several hours at various concentrations of salmon sperm DNA.
DNA binding: DNA binding is measured as inhibition by DNA of the reaction of AGT mutants with BG derivatives. The reaction rate of AGT mutants in a reaction mixture containing salmon sperm DNA (25 µg/ml) instead of oligonucleotide is measured with the BG-Cy3 assay. The reaction rate is determined by fitting the obtained data to a monoexponential increase to maximum.

CHO cells = test: Selective labelling in cells after CPTG pre-incubation; assay type: cell-based; details: 5 µM CPTG 10 min, then 5 µM fluorescent substance 4 20 min
Text: In a further experiment, the mutant AGTM as described in Example 6 is amplified with the primers SEQ ID NO:34 and SEQ ID NO:36 and cloned between the NheI and BgIII sites of the vector pEGFP-Nuc. The […]-galactosidase gene is amplified with the primers SEQ ID NO:37 and SEQ ID NO:38 and subcloned into this vector via BgIII/BamHI to result in a vector with an AGTM-[…]-Gal fusion gene. The hAGT gene is amplified by the principle described under Example 1 with the primers SEQ ID NO:39, SEQ ID NO:40, SEQ ID NO:34, and SEQ ID NO:35 and cloned via NheI/BgIII into pEGFP-Nuc to result in an AGT-NLS3 fusion gene coding for the mutation Gly160Trp. After transient expression of both AGT mutants in parallel, the cells are incubated with 5 µM CPTG for 10 min and subsequently with 5 µM of substance 4 of Juillerat et al., Chem Biol 10:313-317, 2003, for 20 min. The cells are washed and imaged as described under Example 1.

[4] = Stability after reaction with BG-FL; assay type: physicochemical; details: over 7 days
Experimental: Stability before reaction is determined for the mutant AGT or for a mutant AGT fusion protein by incubating purified samples in buffered aqueous solution for up to two weeks at 4° C. and up to six months at −20° C. At several time points, aliquots are taken and concentration of reactive AGT is estimated as described by Juillerat et al., Chem Biol 10:313-317, 2003. Stability for wild type AGT and the AGT mutant after reaction with a labelled substrate and after subsequent separation from unreacted substrate is determined by quantifying the concentration of the label in the soluble fraction over up to two weeks at 4° C. and up to three months at −20° C.
Stability after reaction: The vector pBAD/H is A (Invitrogen) is modified by cloning synthetic oligonucleotides (SEQ ID NO:29 and SEQ ID NO:30) between the NcoI and HindIII sites to include a 12×His-tag and SbfI and AscI cloning sites. The gene of AGTM is amplified with primers SEQ ID NO:31 and SEQ ID NO:32 and cloned between the SbfI/AscI sites into this vector. Wild type AGT and mutant AGT (Lys125Ala, Ala127Thr, Arg128Ala, Asn157Gly, Ser159Glu) are amplified with primers SEQ ID NO:31 and SEQ ID NO:33 and cloned into this vector. Protein expression is carried out in E. coli strain Top 10. An exponentially growing culture is induced with 0.2% arabinose, and the expression is carried out for 16 hours at 28° C. The cells are lysed by adding buffer to 10 ml/g containing 0.5 M NaCl, 80 mM imidazole, 1% Triton, 250 µM PMSF, 1 mM […]-mercaptoethanol, 5 mg/ml lysozyme, 20 µg/ml DNase and stirring for 45 min. […]
The AGT proteins at 10 µM) are quantitatively reacted with fluorescein-modified O^6-benzyl-guanine (substance 5 of Juillerat et al, Chem Biol 10:313-317, 2003, BG-FL, 20 µM) and purified over a size exclusion column (Econopac 10 DG, Bio-Rad) and incubated for 7 days. […] The fluorescence of the supernatant is measured with a Victor2 fluorescence plate reader (Perkin Elmer, excitation/emission at 485/535 nm).

DNA = DNA binding in vitro (co-purified DNA, UV spectroscopy); design: species or system E. coli; details: co-purified DNA; compared to wild type hAGT or PGEG-hAGT
Experimental: as §1
For comparing the DNA binding properties of the protein in vitro, the harvested cells are resuspended, and the GST fusion protein is purified following the same method but in a buffer containing 50 mM phosphate, 0.1 M NaCl, 1 mM DTT. In the dialysed samples, the amount of subsequently co-purified DNA is estimated by UV spectroscopy. Spectra are recorded using a Perkin Elmer Lambda 10. The content of DNA corresponds to the ratio of the extinctions at 280 and 260 nm. […]

[5] = Activity assay with biotinylated O^6-benzylguanine (BG-Bt), Western blotting; assay type: biochemical; details: statement in words
Experimental: Activity towards O^6-benzylguanine substrates is measured as described by Juillerat et al., Chem Biol 10:313-317, 2003.
Activity assay: Purified mutated GST-AGT is incubated in vitro with a biotinylated O^6-benzylguanine (BG-Bt, substance 3a of Juillerat et al., Chem Biol 10:313-317, 2003). In a total reaction volume of 80 […]I, 0.2 µM GST-AGT are incubated with 1 µM substrate in 50 mM HEPES pH 7.2 and 1 mM DTT at room temperature. At several points of time an aliquot is quenched with 1 mM O^6-benzylguanine (Sigma) in SDS-Laemmli buffer and subjected to Western blotting analysis (neutravidin-peroxidase conjugate (PIERCE), Renaissance reagent plus (NEN)). The intensity of the corresponding bands is quantified by a Kodak Image Station 440.

Row | Molecule | activity in presence of BG-modified oligonucleotide [1] | activity against benzylguanine derivatives (factor) [2] | extent of reaction with N^9-modified BG derivatives [3] | reduction of reaction rate to BG-Cy3 in presence of DNA (salmon sperm DNA) [fold] | reaction with CPTG inside cells (CHO cells) | loss of soluble fluorescent protein [4] | DNA binding (DNA) | activity towards O^6-benzylguanine substrates [5]
1 | PGEG-hAGT: an AGT containing the mutations Asn157Gly, Ser159Glu (Juillerat et al., Chem Biol 10:313-317, 2003) (protein, UniProt P16455 1-207, looked up, variant N157G S159E) Methylated-DNA--protein-cystei …: MDKDCEMKRTTLDSPLGKLELSGCEQGLHEIKLLGKGTSAADAVEVPAPAAVLGGPEPLMQCTAWLNAYFHQPEAIEEFPVPALHHPVFQQESFTRQVLWKLLKVVKFGEVISYQQLAALAGNPKAARAVGGAMRGNPVPILIPCHRVVCSSGAVGGYEGGLAVKEWLLAHEGHRLGKPGLGGSSGLAGAWLKGAGATSGSPPAGRN | less than 3% | approximately 20 | reacts efficiently | 5 | – | – | – | –
2 | AGT (Gly160Trp): Human AGT mutant Gly160Trp (Xu-Welliver et al.); expressed as AGT-NLS3 fusion (protein, UniProt P16455 1-207, looked up, variant G160W, NLS3 fusion) Methylated-DNA--protein-cystei …: MDKDCEMKRTTLDSPLGKLELSGCEQGLHEIKLLGKGTSAADAVEVPAPAAVLGGPEPLMQCTAWLNAYFHQPEAIEEFPVPALHHPVFQQESFTRQVLWKLLKVVKFGEVISYQQLAALAGNPKAARAVGGAMRGNPVPILIPCHRVVCSSGAVGNYSWGLAVKEWLLAHEGHRLGKPGLGGSSGLAGAWLKGAGATSGSPPAGRN | – | somewhat more reactive | – | – | efficiently reacts with CPTG inside cells | – | – | –
3 | Lys125Ala, Ala127Thr, Arg128Ala, Asn157Gly, Ser159Glu: hAGT mutant with the listed mutations, expressed as GST fusion (protein, UniProt P16455 1-207, looked up, variant K125A A127T R128A N157G S159E, GST fusion) Methylated-DNA--protein-cystei …: MDKDCEMKRTTLDSPLGKLELSGCEQGLHEIKLLGKGTSAADAVEVPAPAAVLGGPEPLMQCTAWLNAYFHQPEAIEEFPVPALHHPVFQQESFTRQVLWKLLKVVKFGEVISYQQLAALAGNPAATAAVGGAMRGNPVPILIPCHRVVCSSGAVGGYEGGLAVKEWLLAHEGHRLGKPGLGGSSGLAGAWLKGAGATSGSPPAGRN | – | – | – | – | – | about 60% | at least ten times reduced DNA binding | retains activity
